From patent US20250002610A1 (Genmab, published 2025)

How the values were obtained:
[1] = biological target: T1, human DR4 (Death Receptor 4), cell surface expressed on human tumor cell lines (human, UniProt O00220 24-468); experiment: flow cytometry, HCT-15 cells, average ± SEM; HCT-15 cells, average of n = 3
T1 construct: also called TNFRSF10A; TRAIL-R1
T1 sequence: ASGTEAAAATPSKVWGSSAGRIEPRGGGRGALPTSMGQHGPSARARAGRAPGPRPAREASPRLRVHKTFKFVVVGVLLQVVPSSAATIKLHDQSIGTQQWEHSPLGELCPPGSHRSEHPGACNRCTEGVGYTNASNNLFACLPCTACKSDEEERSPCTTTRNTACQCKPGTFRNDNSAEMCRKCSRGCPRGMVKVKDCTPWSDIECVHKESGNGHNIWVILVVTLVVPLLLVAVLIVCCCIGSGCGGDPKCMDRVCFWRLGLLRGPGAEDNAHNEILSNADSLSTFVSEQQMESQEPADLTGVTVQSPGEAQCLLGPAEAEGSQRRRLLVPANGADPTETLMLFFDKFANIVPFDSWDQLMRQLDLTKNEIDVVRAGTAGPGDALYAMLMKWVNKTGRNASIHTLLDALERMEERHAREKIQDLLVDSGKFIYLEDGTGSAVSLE

[2] = biological target: T1, human DR4 (Death Receptor 4), cell …; experiment: flow cytometry on MDA-MB-231 cells (endogenous DR4), antibody incubated at 37 °C, gMFI PE
Procedure: Binding of C1q to membrane-bound BisG1-FAPα-FERL/DR4-FERR was assessed by flow cytometry. MDA-MB-231 cells were harvested as described in Example 3, plated (50,000 cells/well) in round-bottom 96-well plates and incubated with a concentration range of BisG1-FAPα-FERL/DR4-FERR or IgG1-b12-FER control antibody (0.003-30 μg/mL in threefold increments) at 37° C. for 30 min. To assess C1q binding, normal human serum (NHS) (Sanquin, final concentration 20%) was added as a source of C1q and the mixture was incubated at 4° C. for 45 min. Cells were washed twice with FACS buffer (PBS [Lonza, Cat. #BE17-517Q] supplemented with 0.1% [w/v] BSA [Roche, Cat. #10735086001] and 0.02% [w/v] sodium azide [NaN3; bioWORLD, Cat. #41920044-3]) and subsequently incubated with FITC-conjugated rabbit anti-human C1q antibody (DAKO, Cat. #F0254; 1:100 in FACS buffer) at 4° C. for 30 min, protected from light. Within the same experiment, binding of the DR4-antibodies to the MDA-MB-231 cells was confirmed in parallel samples after the incubation with serial dilutions of the tested antibodies.

[3] = biological target: T2, cynomolgus monkey DR4 with death domain deletion on ExpiCHO-S cells (cynomolgus monkey (Macaca fascicularis)); experiment: flow cytometry on ExpiCHO-S cells transiently expressing cynomolgus monkey DR4 (death domain deleted), gMFI PE
T2 construct: also called cynomolgus DR4
T2 chain: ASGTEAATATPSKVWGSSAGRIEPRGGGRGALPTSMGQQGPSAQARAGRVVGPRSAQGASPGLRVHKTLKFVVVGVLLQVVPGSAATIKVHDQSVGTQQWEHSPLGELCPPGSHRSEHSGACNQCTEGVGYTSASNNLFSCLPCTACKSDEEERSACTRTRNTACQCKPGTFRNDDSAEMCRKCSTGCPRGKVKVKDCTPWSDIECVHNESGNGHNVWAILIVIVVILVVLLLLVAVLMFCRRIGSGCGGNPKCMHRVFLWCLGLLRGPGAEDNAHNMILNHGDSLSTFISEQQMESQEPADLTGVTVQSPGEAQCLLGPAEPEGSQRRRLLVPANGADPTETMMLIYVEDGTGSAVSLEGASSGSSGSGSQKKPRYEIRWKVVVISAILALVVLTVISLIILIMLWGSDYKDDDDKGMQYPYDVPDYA

[4] = biological target: T3, FcγRIIIa-F158 (CD16a Protein, Human, Recombinant (ECD, 176 Phe, His & AVI Tag)) (human, UniProt P08637 17-208); experiment: SPR (Biacore 8K), His-tagged FcγRIIIa-F158 captured on an anti-His chip, antibody as analyte, endpoint response against concentration
T3 construct: extracellular domain; Bought reagent; not shown: His & AVI tag
Procedure: Binding of BisG1-FAPα-FERL/DR4-FERR to immobilized human His-tagged FcγRs and FcRn was analyzed by SPR using a Biacore 8K SPR system (Cytiva). To this end, anti-His antibodies were covalently immobilized on the surface of Biacore Series S Sensor Chip CM5 (Cytiva, Cat. #29104988) using the Amine Coupling Kit (Cytiva, Cat. #BR100050) and a His Capture Kit (Cytiva, Cat. #29234602) according to the manufacturer's instructions. To assess antibody binding to immobilized human FcγRs, aliquots of the recombinant His-tagged FcγR proteins (Table 24) were diluted in HBS EP+Buffer pH 7.4 (Cytiva, Cat. #BR100669) and used to capture the FcγR proteins on the surface of the anti-His antibody-coated sensors using a flow rate of 10 μL/min and a contact time of 60 s. Captured levels ranged from 434 to 592 RU. After three start-up cycles of HBS-EP+Buffer, concentration ranges of BisG1-FAPα-FERL/DR4-FERR or IgG1-b12 antibodies (Table 25) were injected to generate binding curves on FcγR-captured sensors (active surface). For each antibody sample, a parallel flow cell without captured FcγRs was included (reference surface), which was used for RU background correction.
All sensorgrams were subtracted by the signal of the third start-up cycle with buffer only (mock analyte). […]

T3 sequence (P08637 17-208): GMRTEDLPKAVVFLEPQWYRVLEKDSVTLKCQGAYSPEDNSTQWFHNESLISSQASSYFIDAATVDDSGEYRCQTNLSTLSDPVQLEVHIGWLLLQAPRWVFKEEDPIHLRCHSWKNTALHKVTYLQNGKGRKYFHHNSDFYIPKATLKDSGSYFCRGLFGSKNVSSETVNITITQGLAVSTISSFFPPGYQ

B1: IgG1-DR4-FERR (antibody, V domains shown)
VH: QVQLQESGPGLVKPSGTLSLTCAVSGGSISSYSWWSWIRQPPGKGLEWIGELYHSGSTNYNPSLKSRVTISVDKSKNQFSLKLRSVTAADTAVYYCVRGVATIDYWGQGTLVTVSS
VL: QSALTQPPSASGSPGQSVTISCTGTSSDVGGYNFVSWYQQDPGKAPKLLIYEVTKRPSGVPDRFSGSKSGNTASLTVSGLQAEDEADYYCSSYAGSNNVMFGGGTKLTVLG
notes: Bivalent monoclonal IgG1 lambda
- EC50 [1]: 0.17 µg/mL

B2: BisG1-FAPα-FERL/DR4-FERR (bispecific antibody, human IgG1, kappa, lambda)
heavy 1: EVQLLESGGGLVQPGGSPRLSCEASGFTFSSYALSWVRQAPGKGLEWVSAISGSGGGRYYADSVKGRFTISRDNSKNTLFLQMNSLRAEDTAVYYCAKEGYSSSGTYWDHWGQGTLVTVSSASTKGPSVFPLAPSSKSTSGGTAALGCLVKDYFPEPVTVSWNSGALTSGVHTFPAVLQSSGLYSLSSVVTVPSSSLGTQTYICNVNHKPSNTKVDKRVEPKSCDKTHTCPPCPAPEFERGPSVFLFPPKPKDTLMISRTPEVTCVVVDVSHEDPEVKFNWYVDGVEVHNAKTKPREEQYNSTYRVVSVLTVLHQDWLNGKEYKCKVSNKALPAPIEKTISKAKGQPREPQVYTLPPSREEMTKNQVSLTCLVKGFYPSDIAVEWESNGQPENNYKTTPPVLDSDGSFLLYSKLTVDKSRWQQGNVFSCSVMHEALHNHYTQKSLSLSPG
light 1: AIQMTQSPSSVSASVGDRVTITCRASQGVSSWLAWYQQKPGRAPKLLIYVASTLQSGVPSRFSGSGSGTDFTLTINSLQPEDFATYYCQQANSFPPTFGQGTRLEMKRTVAAPSVFIFPPSDEQLKSGTASVVCLLNNFYPREAKVQWKVDNALQSGNSQESVTEQDSKDSTYSLSSTLTLSKADYEKHKVYACEVTHQGLSSPVTKSFNRGEC
heavy 2: QVQLQESGPGLVKPSGTLSLTCAVSGGSISSYSWWSWIRQPPGKGLEWIGELYHSGSTNYNPSLKSRVTISVDKSKNQFSLKLRSVTAADTAVYYCVRGVATIDYWGQGTLVTVSSASTKGPSVFPLAPSSKSTSGGTAALGCLVKDYFPEPVTVSWNSGALTSGVHTFPAVLQSSGLYSLSSVVTVPSSSLGTQTYICNVNHKPSNTKVDKRVEPKSCDKTHTCPPCPAPEFERGPSVFLFPPKPKDTLMISRTPEVTCVVVDVSHEDPEVKFNWYVDGVEVHNAKTKPREEQYNSTYRVVSVLTVLHQDWLNGKEYKCKVSNKALPAPIEKTISKAKGQPREPQVYTLPPSREEMTKNQVSLTCLVKGFYPSDIAVEWESNGQPENNYKTTPPVLDSDGSFFLYSRLTVDKSRWQQGNVFSCSVMHEALHNHYTQKSLSLSPG
light 2: QSALTQPPSASGSPGQSVTISCTGTSSDVGGYNFVSWYQQDPGKAPKLLIYEVTKRPSGVPDRFSGSKSGNTASLTVSGLQAEDEADYYCSSYAGSNNVMFGGGTKLTVLGQPKAAPSVTLFPPSSEELQANKATLVCLISDFYPGAVTVAWKADSSPVKAGVETTTPSKQSNNKYAASSYLSLTPEQWKSHRSYSCQVTHEGSTVEKTVAPTECS
notes: Human IgG1 bispecific made by controlled Fab-arm exchange of IgG1-FAPα-FERL and IgG1-DR4-FERR; monovalent for FAPα and for DR4; also called GEN1057
- EC50 (read off the curve) [2]: ~0.5 µg/mL
- EC50 (read off the curve) [3]: ~1 µg/mL

B3: IgG1-b12 (antibody)
heavy: not shown
light: EIVLTQSPGTLSLSPGERATFSCRSSHSIRSRRVAWYQHKPGQAPRLVIHGVSNRASGISDRFSGSGSGTDFTLTITRVEPEDFALYYCQVYGASSYTFGQGTKLERKRTVAAPSVFIFPPSDEQLKSGTASVVCLLNNFYPREAKVQWKVDNALQSGNSQESVTEQDSKDSTYSLSSTLTLSKADYEKHKVYACEVTHQGLSSPVTKSFNRGEC
notes: HIV gp120 antibody b12 with wild-type IgG1 Fc; also called IgG-b12
- binding result [4]: binds
